Laboratory results: US20150203575A1 (Genentech, published 2015)
Like-named read-outs stand apart in the source and are kept apart here.

B1: mPILRα-Fc (Fc fusion)
chain: not shown
notes: also called mouse PILRα-Fc; WT mPILRα-Fc; not shown: Fc of mouse IgG2a (PILRα-mIgG2a, called PILRα-Fc)
B2: mPILRαR133A-Fc (Fc fusion)
chain: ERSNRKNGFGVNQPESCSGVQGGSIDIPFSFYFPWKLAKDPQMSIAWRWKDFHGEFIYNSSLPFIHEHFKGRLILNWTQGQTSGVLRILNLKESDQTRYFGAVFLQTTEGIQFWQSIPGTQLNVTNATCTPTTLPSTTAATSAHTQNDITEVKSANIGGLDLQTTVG
notes: Arg mutant of mPILRα-Fc; also called mPILRα133A-Fc; variant mPILRα (R133A); not shown: Fc of mouse IgG2a (PILRα-mIgG2a, called PILRα-Fc)

Experiments:
MAG expressed on cells [1] = target: T1, MAG expressed on cells (human, UniProt P20916 20-626); experiment: flow cytometry, transfected 293T cells
T1 construct: Clone of the Origene human cDNA library; also called Myelin associated glycoprotein; SIGLEC4A
T1 sequence: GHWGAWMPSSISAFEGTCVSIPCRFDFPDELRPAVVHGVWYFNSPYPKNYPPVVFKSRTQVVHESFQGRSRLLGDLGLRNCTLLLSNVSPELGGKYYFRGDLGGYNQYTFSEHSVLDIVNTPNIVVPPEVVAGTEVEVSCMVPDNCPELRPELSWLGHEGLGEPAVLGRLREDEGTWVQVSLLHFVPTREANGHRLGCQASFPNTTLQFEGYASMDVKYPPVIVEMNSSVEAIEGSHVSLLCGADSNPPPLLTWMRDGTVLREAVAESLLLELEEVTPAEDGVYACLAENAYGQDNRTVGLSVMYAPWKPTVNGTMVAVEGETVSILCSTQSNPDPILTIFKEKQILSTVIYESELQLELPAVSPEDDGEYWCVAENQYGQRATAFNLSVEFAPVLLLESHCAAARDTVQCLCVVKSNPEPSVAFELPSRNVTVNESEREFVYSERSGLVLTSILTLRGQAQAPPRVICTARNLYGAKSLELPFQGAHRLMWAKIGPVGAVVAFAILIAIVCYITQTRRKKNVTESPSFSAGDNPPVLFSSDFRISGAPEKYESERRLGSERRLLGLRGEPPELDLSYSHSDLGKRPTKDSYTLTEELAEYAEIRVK

[2] = target: T2, human COLEC12 expressed on cells (human, UniProt Q5KU26 1-742); experiment: flow cytometry, transfected 293T cells, 2 µg/ml
T2 construct: also called hCOLEC12; C-terminal his tagged hCOLEC12

[3] = target: T3, CLEC4G expressed on cells (human, UniProt Q6UXB4 1-293); experiment: flow cytometry, transfected 293T cells, 2 µg/ml
T3 construct: Clone of the Origene human cDNA library; also called C type lectin superfamily 4 member G
T3 sequence: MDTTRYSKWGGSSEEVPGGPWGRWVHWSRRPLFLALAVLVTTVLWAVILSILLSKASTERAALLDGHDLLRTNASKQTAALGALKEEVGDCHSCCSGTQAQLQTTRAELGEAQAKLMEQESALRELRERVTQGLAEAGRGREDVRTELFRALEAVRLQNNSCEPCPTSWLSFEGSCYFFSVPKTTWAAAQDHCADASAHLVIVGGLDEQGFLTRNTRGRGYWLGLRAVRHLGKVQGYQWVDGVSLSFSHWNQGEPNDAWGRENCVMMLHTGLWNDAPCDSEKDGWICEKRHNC

[4] = target: T2, human COLEC12 expressed on cells; experiment: flow cytometry, transfected 293T cells, 2 µg/ml; remark: listed apart in the source
[5] = target: T3, CLEC4G expressed on cells; experiment: flow cytometry, transfected 293T cells, 2 µg/ml; remark: listed apart in the source
MAG expressed on cells [6] = target: T1, MAG expressed on cells; experiment: flow cytometry, transfected 293T cells, 2 µg/ml
[7] = target: T4, LRRTM4 expressed on cells (human, UniProt Q86VH4 31-590); experiment: flow cytometry, transfected 293T cells, 2 µg/ml
T4 construct: Clone of the Origene human cDNA library; also called Leucine rich repeat transmembrane neuronal 4

[8] = target: T4, LRRTM4 expressed on cells; experiment: flow cytometry, transfected 293T cells, 2 µg/ml; remark: listed apart in the source
[9] = target: T3, CLEC4G expressed on cells; experiment: flow cytometry, transfected 293T cells, 50 µg/ml
MAG expressed on cells [10] = target: T1, MAG expressed on cells; experiment: flow cytometry, transfected 293T cells, 50 µg/ml
[11] = target: T4, LRRTM4 expressed on cells; experiment: flow cytometry, transfected 293T cells, 50 µg/ml
MAG expressed on cells [12] = target: T1, MAG expressed on cells; experiment: flow cytometry, transfected 293T cells, 50 µg/ml; remark: listed apart in the source
[13] = target: T4, LRRTM4 expressed on cells; experiment: flow cytometry, transfected 293T cells, 50 µg/ml; remark: listed apart in the source
BR3 expressed on cells = target: T5, BR3 expressed on cells (human, UniProt Q96RJ3 1-184); experiment: flow cytometry, transfected 293T cells, 2 µg/ml
T5 construct: Clone of the Origene human cDNA library
T5 sequence: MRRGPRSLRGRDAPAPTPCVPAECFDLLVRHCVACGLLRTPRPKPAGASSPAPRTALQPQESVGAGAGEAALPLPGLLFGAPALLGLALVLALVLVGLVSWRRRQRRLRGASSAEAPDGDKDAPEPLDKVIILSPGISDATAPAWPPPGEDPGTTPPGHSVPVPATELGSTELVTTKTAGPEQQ

[14] = target: T6, IL-2Ra expressed on cells (human, UniProt P01589 22-272); experiment: flow cytometry, transfected 293T cells, 2 µg/ml
T6 construct: Clone of the Origene human cDNA library; also called Interleukin 2 receptor alpha
T6 sequence: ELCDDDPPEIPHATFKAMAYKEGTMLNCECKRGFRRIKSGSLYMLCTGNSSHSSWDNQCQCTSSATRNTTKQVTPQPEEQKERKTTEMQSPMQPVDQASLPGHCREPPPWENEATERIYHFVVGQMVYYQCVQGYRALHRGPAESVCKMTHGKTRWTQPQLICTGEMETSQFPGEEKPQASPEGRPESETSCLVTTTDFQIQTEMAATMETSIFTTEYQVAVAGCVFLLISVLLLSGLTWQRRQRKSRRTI

PSS8 expressed on cells = target: T7, PSS8 expressed on cells (human, UniProt Q16651 30-343); experiment: flow cytometry, transfected 293T cells, 2 µg/ml
T7 construct: Clone of the Origene human cDNA library; also called Protease serine 8; prostasin
T7 sequence (Q16651 30-343 limits assumed): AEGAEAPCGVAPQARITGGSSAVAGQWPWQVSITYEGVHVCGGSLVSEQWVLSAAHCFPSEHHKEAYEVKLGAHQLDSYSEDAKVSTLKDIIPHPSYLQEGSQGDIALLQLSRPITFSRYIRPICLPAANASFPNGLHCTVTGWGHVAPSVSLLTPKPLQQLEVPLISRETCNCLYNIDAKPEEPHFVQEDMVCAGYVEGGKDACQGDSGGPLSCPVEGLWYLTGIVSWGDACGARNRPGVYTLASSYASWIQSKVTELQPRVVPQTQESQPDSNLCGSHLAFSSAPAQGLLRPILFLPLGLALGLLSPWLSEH

T2 sequence (Q5KU26 whole entry S522P/G606S): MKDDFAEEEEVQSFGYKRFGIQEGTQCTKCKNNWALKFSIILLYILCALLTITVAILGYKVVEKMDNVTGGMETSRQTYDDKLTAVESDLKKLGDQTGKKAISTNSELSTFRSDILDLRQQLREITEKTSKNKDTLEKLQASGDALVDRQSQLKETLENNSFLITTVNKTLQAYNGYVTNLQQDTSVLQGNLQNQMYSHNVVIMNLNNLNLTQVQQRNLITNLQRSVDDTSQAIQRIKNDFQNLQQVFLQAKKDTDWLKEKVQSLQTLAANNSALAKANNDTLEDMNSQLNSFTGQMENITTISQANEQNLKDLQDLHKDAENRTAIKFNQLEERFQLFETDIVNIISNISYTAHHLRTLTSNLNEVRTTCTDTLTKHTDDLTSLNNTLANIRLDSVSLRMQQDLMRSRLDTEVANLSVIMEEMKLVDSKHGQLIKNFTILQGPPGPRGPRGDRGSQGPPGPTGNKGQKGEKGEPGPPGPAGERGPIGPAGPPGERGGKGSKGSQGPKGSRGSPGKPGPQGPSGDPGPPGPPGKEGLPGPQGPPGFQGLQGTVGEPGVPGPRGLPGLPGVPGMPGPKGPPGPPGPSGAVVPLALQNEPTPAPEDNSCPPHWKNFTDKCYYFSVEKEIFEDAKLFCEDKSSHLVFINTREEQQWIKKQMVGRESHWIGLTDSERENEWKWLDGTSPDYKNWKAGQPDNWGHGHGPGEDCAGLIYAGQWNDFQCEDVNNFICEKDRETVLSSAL
T4 sequence (Q86VH4 31-590 limits assumed): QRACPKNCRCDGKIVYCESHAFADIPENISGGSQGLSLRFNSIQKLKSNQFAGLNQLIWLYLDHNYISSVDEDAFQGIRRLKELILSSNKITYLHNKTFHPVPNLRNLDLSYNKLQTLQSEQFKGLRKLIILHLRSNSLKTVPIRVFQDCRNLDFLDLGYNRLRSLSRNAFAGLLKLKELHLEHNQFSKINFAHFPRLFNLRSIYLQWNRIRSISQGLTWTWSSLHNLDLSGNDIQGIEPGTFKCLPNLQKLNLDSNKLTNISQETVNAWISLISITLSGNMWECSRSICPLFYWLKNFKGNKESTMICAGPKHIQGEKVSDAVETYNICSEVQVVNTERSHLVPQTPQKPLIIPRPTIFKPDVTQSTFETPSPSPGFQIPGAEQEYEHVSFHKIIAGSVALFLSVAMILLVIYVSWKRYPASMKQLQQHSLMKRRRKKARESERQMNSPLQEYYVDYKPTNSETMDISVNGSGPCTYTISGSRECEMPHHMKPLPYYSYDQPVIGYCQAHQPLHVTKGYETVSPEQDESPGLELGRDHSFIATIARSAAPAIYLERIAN

Row | Binder | binding result (MAG expressed on cells [1]) | % cells in lower right quadrant [2] | % cells in lower right quadrant [3] | % cells in lower right quadrant [4] | % cells in lower right quadrant [5] | % cells in lower right quadrant (MAG expressed on cells [6]) | % cells in lower right quadrant [7] | % cells in lower right quadrant [8] | % cells in lower right quadrant [9] | % cells in lower right quadrant (MAG expressed on cells [10]) | % cells in lower right quadrant [11] | % cells in lower right quadrant (MAG expressed on cells [12]) | % cells in lower right quadrant [13] | % cells in lower right quadrant (BR3 expressed on cells) | % cells in lower right quadrant [14] | % cells in lower right quadrant (PSS8 expressed on cells)
1 | B1 | no binding (tested: 50 µg/ml) | 0.082% | 69.9% | 0.082% | 69.9% | 0.039% | 2.68% | 2.68% | 85.5% | 0.55% | 16.6% | 0.55% | 16.6% | 34.1% | 14.1% | 0.024%
2 | B2 | no binding (tested: 50 µg/ml) | 0.014% | 0.044% | 0.014% | 0.044% | 0% | 0.025% | 0.025% | 0.045% | 0% | 0.019% | – | 0.019% | – | – | –
